In patent US20160039883A1 (AstraZeneca / MedImmune, published 2016):

How the values were obtained:
VLP098 = assay: ELISA, VLP-coated wells, 0.5 µg/ml palivizumab, OD relative to sF-coated wells
VLP059 = assay: as above
VLP099 = assay: as above
VLP019 = assay: as above
VLP097 = assay: as above
[1] = biological target: RSV fusion (F) protein on RSV virus (respiratory syncytial virus, UniProt P03420 26-574); assay: cell-based or functional assay

B1: palivizumab (antibody, V domains shown)
VH: QVTLRESGPALVKPTQTLTLTCTFSGFSLSTSGMSVGWIRQPPGKALEWLADIWWDDKKDYNPSLKSRLTISKDTSKNQVVLKVTNMDPADTATYYCARSMITNWYFDVWGAGTTVTVSS
VL: DIQMTQSPSTLSASVGDRVTITCKCQLSVGYMHWYQQKPGKAPKLLIYDTSKLASGVPSRFSGSGSGTEFTLTISSLQPDDFATYYCFQGSGYPFTFGGGTKLEIK
VLP098
  Palivizumab binding in vitro (sF = 100%): 47%
VLP059
  Palivizumab binding in vitro (sF = 100%): 83%
VLP099
  Palivizumab binding in vitro (sF = 100%): 95%
VLP019
  Palivizumab binding in vitro (sF = 100%): 100%
VLP097
  Palivizumab binding in vitro (sF = 100%): 112%
[1]
  PRNT as measured by the IC50 point: ~0.5 µg/mL
